Source: paper PMC5477135, “Imaging of αvβ3 integrin expression in experimental myocardial ischemia with [^68Ga]NODAGA-RGD positron emission tomography” (Journal of Translational Medicine, 2017)
Marks after values point to notes of the source that are not given here.

Key:
in vitro = in vitro ADME; details: plasma
Description: To evaluate species-dependent differences, the [^68Ga]NODAGA-RGD binding to human, pig and rat plasma proteins was measured using in vitro assay as described previously.

in vivo [1] = details: pig, iv, total radioactivity
Description: During the [^68Ga]NODAGA-RGD PET imaging, blood samples (2 ml) were obtained into heparinized tubes from the femoral artery 2, 5, 10, 20, 30, 40, 50 and 60 min after the injection of [^68Ga]NODAGA-RGD for the measurements of total radioactivity, radiometabolites (proportion of authentic tracer), and plasma-to-blood ratio. The radioactivities of whole blood and blood plasma were measured using a gamma counter (1480 Wizard 3″; PerkinElmer, Turku, Finland).

in vivo [2] = details: Finnish landrace, pig, iv, total radioactivity
Description: (§1) Coronary stenosis was created in 11 domestic, 3-month old pigs weighing 30–35 kg by implanting a bottleneck stent in the proximal LAD coronary artery as described previously. In addition, a sham group of 4 pigs underwent a catheterization procedure without the stent implantation. Myocardial [^68Ga]NODAGA-RGD uptake was evaluated by PET 13 ± 4 days after the stent implantation. […] Three pigs without a perfusion defect during adenosine stress were considered as procedural failures and excluded from further in vivo analyses.
(§2) Then a [^68Ga]NODAGA-RGD PET was performed with an ECAT EXACT HR+ scanner (Siemens-CTI, Knoxville, TN, USA). The studies were started with a 10 min transmission scan. The dynamic scanning started at the same time as 310 ± 43 MBq (230–400 MBq) of [^68Ga]NODAGA-RGD was injected via the ear vein. The acquisition time frames were as follows: 18 × 10 s, 4 × 30 s, 2 × 120 s, 1 × 180 s, 4 × 300 s, 3 × 600 s (total duration 62 min). The acquired [^68Ga]NODAGA-RGD PET data were corrected for scatter, random counts, and dead time and iteratively reconstructed with ordered-subsets expectation maximization (OSEM) algorithm using 2 iterations and 32 subsets. The whole transaxial field of view (70 cm) was reconstructed in 256 × 256 matrix yielding to pixel size of 2.57 mm × 2.57 mm. The device produces 63 axial planes with a slice thickness of 2.43 mm.
(§3) For quantification of [^68Ga]NODAGA-RGD uptake in the myocardium, the [^15O]water images and the [^68Ga]NODAGA-RGD images were co-registered using the high blood pool activity of the [^68Ga]NODAGA-RGD as a landmark (Fig. 1). The myocardial contours from the [^15O]water images were copied to the co-registered [^68Ga]NODAGA-RGD data. Then, the polar maps of [^68Ga]NODAGA-RGD uptake expressed as standardized uptake value (SUV) (time frame 52–62 min after injection) in the LV myocardium were generated using matching image orientation and sampling points. The region of interest (ROI) defining the ischemic area was copied from the [^15O]water polar maps to measure [^68Ga]NODAGA-RGD uptake in this region. The septum was excluded from the measurements to prevent spillover from the blood in the right ventricle. The mean and maximum SUVs were determined from the ischemic area. In order to measure the SUVs, ROI was modified to include only the mid-myocardium in order to avoid spill-over from blood. The maximum SUV within the ROI was determined from area showing visually the highest uptake. One segment in the posterolateral wall (segment 11) that was always outside the ischemic area was used to measure [^68Ga]NODAGA-RGD uptake in the remote myocardium. The ischemic-to-remote SUV ratio was calculated in the ischemic area and remote myocardium.

αvβ3 integrin [3] = test: in vivo; details: pig
Description: as §1, §2, §3

αvβ3 integrin [4] = details: pig, in vivo
Source text: Subsequently, the pigs were euthanized and their hearts were excised. Based on 1% 2,3,5-triphenyltetrazolium chloride (TTC) (Sigma-Aldrich, Saint Louis, MO, USA) staining, tissue samples were obtained from the injured ischemic (TTC negative) and adjacent viable ischemic (TTC positive) myocardium as well as from the remote non-ischemic myocardium. Autoradiography of myocardial tissue sections was used to compare [^68Ga]NODAGA-RGD uptake with the histology, αvβ3 integrin expression and CD31 on endothelial cells. Tissue samples were frozen in isopentane mixed with dry ice and cut into serial 40 and 7 µm sections for autoradiography and immunohistochemical stainings respectively, using a cryomicrotome. Tissue sections of 40 μm thickness were immediately exposed on a phosphor imaging plate (BAS-TR2025, Fuji Photo Film Co. Ltd., Tokyo, Japan) for 2 h. The distribution of radioactivity on the plate was visualized and quantified using a Fluorescent Image Analyzer (Fujifilm FLA-5100, Fuji Photo Film Co. Ltd., Tokyo, Japan). Autoradiographs and hematoxylin & eosin (HE) staining images of the same sections were co-registered and [^68Ga]NODAGA-RGD accumulation was measured by drawing ROIs covering remote myocardium, and either viable or injured ischemic myocardium using TINA™ 2.10f software (Raytest Isotopenmessgeräte GmbH., Straubenhardt, Germany). Results were expressed as photostimulated luminescence per square millimetre (PSL/mm^2) and normalized for the injected radioactivity dose, animal weight and the radioactivity decay. Serial tissue sections of 7 μm were stained with H&E for general histology, Masson’s trichrome for differentiation myocytes and collagenous scar, and immunohistochemistry with antibodies against of CD31 on endothelial cells (dilution 1:250, Thermo Scientific, Cheshire, UK), αvβ3 integrin (dilution 1:200, Millipore, Temecula, CA, USA) and α-smooth muscle actin on myofibroblasts (dilution 1:30,000, Sigma-Aldrich, St. Louis, MO, USA). […]

αvβ3 integrin [5] = details: pig, in vivo; remark: listed apart in the source
Source text: Subsequently, the pigs were euthanized and their hearts were excised. Based on 1% 2,3,5-triphenyltetrazolium chloride (TTC) (Sigma-Aldrich, Saint Louis, MO, USA) staining, tissue samples were obtained from the injured ischemic (TTC negative) and adjacent viable ischemic (TTC positive) myocardium as well as from the remote non-ischemic myocardium. Autoradiography of myocardial tissue sections was used to compare [^68Ga]NODAGA-RGD uptake with the histology, αvβ3 integrin expression and CD31 on endothelial cells. Immediately after the PET scanning, the animals were sacrificed by an i.v. injection of potassium chloride (B. Braun Medical Oy, Helsinki, Finland). The heart was excised, the LV was cut into 4 short axis slices from base to apex that were incubated for 15 min in 1% TTC (Sigma-Aldrich, Saint Louis, MO, USA), diluted in phosphate-buffered saline (pH 7.4) at 37 °C, photographed from both sides and the presence of non-viable ischemic area was confirmed visually. Based on the TTC staining, transmural samples containing non-viable and immediately adjacent viable myocardium were collected from the LV wall corresponding to the ischemic area in PET images. Another sample was obtained from the posterior LV wall representative of the remote region (segment number 11). Myocardial samples and a blood sample were weighed and measured for radioactivity using the gamma counter (Wizard). The radioactivity concentration was expressed as standardized uptake values (SUV = ([tissue radioactivity/tissue weight]/[total given radioactivity/animal body weight])).

N=C(N)NCCC[C@@H]1NC(=O)[C@H](CCCCNC(=O)CCC(C(=O)O)N2CCN(CC(=O)O)CCN(CC(=O)O)CC2)NC(=O)[C@@H](Cc2ccc(O)cc2)NC(=O)[C@H](CC(=O)O)NC(=O)CNC1=O (stereo partly shown) [[^68Ga]NODAGA-RGD, metal not drawn]
fraction unbound (in vitro; pig): 0.93 ± 0.017 | fraction unbound (in vitro; rat): 0.94 ± 0.011 | tissue to tissue ratio (in vivo [1]): 1.4 ± 0.1 | SUV (in vivo [2]): 1.3 ± 0.2 SUV | average myocardial uptake in the ischemic area higher than in the remote myocardium (αvβ3 integrin [3]): 26% | average uptake in the LV myocardium (SUV) (αvβ3 integrin [3]): 0.42 ± 0.10 SUV | uptake in anteroseptal wall (segments 7 and 13) (SUV) (αvβ3 integrin [3]): 0.39 ± 0.11 SUV | uptake in posterolateral wall (segment 11) (SUV) (αvβ3 integrin [3]): 0.36 ± 0.078 SUV | Injured area SUVMax (αvβ3 integrin [3]; iv): 0.80 ^† SUV | Ischemic area SUVMean (αvβ3 integrin [3]; iv): 0.61* SUV | mean uptake by autoradiography, injured area (αvβ3 integrin [4]): 4.6 ± 2.1 PSL/mm^2 | mean uptake by autoradiography, remote area (αvβ3 integrin [4]): 1.8 ± 0.61 PSL/mm^2 | mean uptake by autoradiography, viable ischemic area (αvβ3 integrin [4]): 2.2 ± 0.85 PSL/mm^2 | radioactivity in tissue sample from injured myocardium (SUV) (αvβ3 integrin [5]): 0.79 ± 0.21 SUV | radioactivity in tissue sample from remote myocardium (SUV) (αvβ3 integrin [5]): 0.49 ± 0.21 SUV | radioactivity in tissue sample from viable ischemic myocardium (SUV) (αvβ3 integrin [5]): 0.49 ± 0.17 SUV
